Source: the supplement of paper PMC10724198
± gives the standard deviation of the averaged measurements.

system: Saccharomyces cerevisiae; test: protein stability index of tFT-peptide fusion (C-terminal peptide) (PSI (0-1 scale)); higher = more stable (slower turnover); details: genetic background: das1 deletion; temperature: 30 C
Experimental: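 MPS profiling in S. cerevisiae of the yeast C-terminome library: the last 12 aa of each annotated ORF are fused to the C-terminus of a sfGFP-mCherry timer, after a GGGS linker. Cells are FACS-sorted into 8 mCherry/sfGFP bins and deep-sequenced. PSI runs from 0 (unstable) to 1 (stable); wild type and das1Δ backgrounds, two technical replicates each.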

Sequence	protein stability index
AAKYLNSLSVNQ [PTP1 C-terminal 12 aa]	0.698 ± 0.029
ACDNSGLIGIFQ [VPS15 C-terminal 12 aa]	0.723 ± 0.02
ACFTRLPTPAIL [TRM8 C-terminal 12 aa]	0.68 ± 0.0089
ACFVFSPSAMVT [BRP1 C-terminal 12 aa]	0.6493 ± 0.0022
ADARDKFVDLYN [ADD66 C-terminal 12 aa]	0.696 ± 0.027
ADRASVEIIDAN [PFA3 C-terminal 12 aa]	0.705 ± 0.021
ADWKAQRGEDGK [PNG1 C-terminal 12 aa]	0.67376 ± 7.2e-05
AEHHLQTFLSEK [ISC1 C-terminal 12 aa]	0.6488 ± 0.0013
AELILETSYDKF [MRX1 C-terminal 12 aa]	0.729 ± 0.011
AESPEEADVEMS [PUP2 C-terminal 12 aa]	0.6788 ± 0.0056
AFLKIFENAMPN [ADD37 C-terminal 12 aa]	0.725 ± 0.019
AFRSLQKSKKKK [PKH3 C-terminal 12 aa]	0.717 ± 0.042
AGEKTVAELMEN [PYP1 C-terminal 12 aa]	0.679 ± 0.025
AGIRKRDWDSTQ [RFM1 C-terminal 12 aa]	0.717 ± 0.02
AIQEYNARYPLN [ABF2 C-terminal 12 aa]	0.708 ± 0.0085
AKCGEWTPELSS [CPR2 C-terminal 12 aa]	0.71451 ± 0.00067
AKERLNPPSNRR [NIP1 C-terminal 12 aa]	0.708 ± 0.014
AKGKGKSDEKIL [YIL086C C-terminal 12 aa]	0.7026 ± 0.0025
ALNGDCCLWRWV [SWD3 C-terminal 12 aa]	0.708 ± 0.015
ALNRADKMSTIG [URH1 C-terminal 12 aa]	0.676 ± 0.027
ALSEYMENTSGL [RSC9 C-terminal 12 aa]	0.696 ± 0.059
ANLFSSKKKAKL [RSB1 C-terminal 12 aa]	0.803 ± 0.058

Sequence	protein stability index
ANRQCYVNGTKT [YDR250C C-terminal 12 aa]	0.663 ± 0.0094
APAEQTQGEPTK [BMH2 C-terminal 12 aa]	0.71 ± 0.013
APDNGPTVEEVD [SSA4 C-terminal 12 aa]	0.69 ± 0.0087
APEEEAYKPNQN [KRR1 C-terminal 12 aa]	0.708 ± 0.0089
APRLRLEDIFQQ [RET1 C-terminal 12 aa]	0.752 ± 0.011
AQGKLIMNVEKF [AST1 C-terminal 12 aa]	0.712 ± 0.05
AQQNYRLWLSSF [ICY1 C-terminal 12 aa]	0.7166 ± 0.0069
ARGYVNVMDNIQ [SEC16 C-terminal 12 aa]	0.6727 ± 0.0025
ARIWKYKKIAPN [TUP1 C-terminal 12 aa]	0.726 ± 0.0075
ARMLARECRRHM [CDC23 C-terminal 12 aa]	0.7022 ± 0.00087
ASRFAQFLKQDA [MET16 C-terminal 12 aa]	0.717 ± 0.012
ATALSGHKANCN [MTQ1 C-terminal 12 aa]	0.6878 ± 0.0049
ATFFRYLSNIFT [AGP3 C-terminal 12 aa]	0.723 ± 0.0077
ATLINILLELFS [ECM27 C-terminal 12 aa]	0.632 ± 0.014
ATSTAAAADKKT [HAP2 C-terminal 12 aa]	0.6674 ± 0.0023
AVHLQAIDLLNC [PIR1 C-terminal 12 aa]	0.714 ± 0.024
AVIVHSYTVQHM [TRM3 C-terminal 12 aa]	0.695 ± 0.032
AVKINRNGKPRI [TAO3 C-terminal 12 aa]	0.698 ± 0.014
AVVLQSIQFTSE [IML3 C-terminal 12 aa]	0.621 ± 0.018
AWDKFKLQNDIN [SWA2 C-terminal 12 aa]	0.736 ± 0.015
AYFIDVVGCSGL [LIH1 C-terminal 12 aa]	0.706 ± 0.00073
AYLLFYTIRQVN [UBP8 C-terminal 12 aa]	0.366 ± 0.012

Sequence	protein stability index
AYQIRQEVLQSL [SGA1 C-terminal 12 aa]	0.65923 ± 0.00056
AYVLFYHRVYGV [DOA4 C-terminal 12 aa]	0.691 ± 0.011
CDIQEEQVDITA [PUP1 C-terminal 12 aa]	0.695 ± 0.0088
CEYGTNAIDALI [YER091C-A C-terminal 12 aa]	0.7311 ± 0.0014
CICSGMLFEMDG [SIN4 C-terminal 12 aa]	0.696 ± 0.011
CIPLINYHLRKS [CBS1 C-terminal 12 aa]	0.709 ± 0.022
CKDQTVTQILAT [DMO1 C-terminal 12 aa]	0.6533 ± 0.0054
CLCLINLCCDVF [YDR034W-B C-terminal 12 aa]	0.267 ± 0.0034
CMESNPPVFMAI [YNL296W C-terminal 12 aa]	0.709 ± 0.035
CRGIAEVNMKYT [PPS1 C-terminal 12 aa]	0.6869 ± 0.0036
CTFIYFLYFSLF [YBL070C C-terminal 12 aa]	0.325 ± 0.0072
CWENVRKTRAAK [PSO2 C-terminal 12 aa]	0.692 ± 0.0083
CYTEEEWSKIVV [BOL2 C-terminal 12 aa]	0.7072 ± 0.003
DACIKRWNVVLE [AIP1 C-terminal 12 aa]	0.684 ± 0.023
DDDDDDDGQITA [YHR131C C-terminal 12 aa]	0.677 ± 0.027
DDEIDSEEDENA [SDD3 C-terminal 12 aa]	0.69 ± 0.035
DDFKKAFREKRK [ALY1 C-terminal 12 aa]	0.729 ± 0.013
DEDDDEDVTDQE [DLS1 C-terminal 12 aa]	0.6663 ± 0.004
DEEEEIEPEVKA [SBA1 C-terminal 12 aa]	0.678 ± 0.017
DEQPTLSQSKTK [DAD1 C-terminal 12 aa]	0.708 ± 0.012
DFIKNPNDYFKQ [BEM2 C-terminal 12 aa]	0.73319 ± 0.00064

same assay, conditions: genetic background: wild type; temperature: 30 C

Sequence	protein stability index
AAKYLNSLSVNQ [PTP1 C-terminal 12 aa]	0.686 ± 0.043
ACDNSGLIGIFQ [VPS15 C-terminal 12 aa]	0.681 ± 0.069
ACFTRLPTPAIL [TRM8 C-terminal 12 aa]	0.6593 ± 0.0055
ACFVFSPSAMVT [BRP1 C-terminal 12 aa]	0.637 ± 0.028
ADARDKFVDLYN [ADD66 C-terminal 12 aa]	0.708 ± 0.1
ADRASVEIIDAN [PFA3 C-terminal 12 aa]	0.7046 ± 0.0057
ADWKAQRGEDGK [PNG1 C-terminal 12 aa]	0.703 ± 0.014
AEHHLQTFLSEK [ISC1 C-terminal 12 aa]	0.641 ± 0.02
AELILETSYDKF [MRX1 C-terminal 12 aa]	0.722 ± 0.055
AESPEEADVEMS [PUP2 C-terminal 12 aa]	0.707 ± 0.052
AFLKIFENAMPN [ADD37 C-terminal 12 aa]	0.678 ± 0.0089
AFRSLQKSKKKK [PKH3 C-terminal 12 aa]	0.793 ± 0.034
AGEKTVAELMEN [PYP1 C-terminal 12 aa]	0.687 ± 0.022
AGIRKRDWDSTQ [RFM1 C-terminal 12 aa]	0.691 ± 0.055
AIQEYNARYPLN [ABF2 C-terminal 12 aa]	0.707 ± 0.021
AKCGEWTPELSS [CPR2 C-terminal 12 aa]	0.731 ± 0.014
AKERLNPPSNRR [NIP1 C-terminal 12 aa]	0.688 ± 0.02
AKGKGKSDEKIL [YIL086C C-terminal 12 aa]	0.73 ± 0.12
ALNGDCCLWRWV [SWD3 C-terminal 12 aa]	0.292 ± 0.013
ALNRADKMSTIG [URH1 C-terminal 12 aa]	0.6665 ± 0.0042
ALSEYMENTSGL [RSC9 C-terminal 12 aa]	0.728 ± 0.014
ANLFSSKKKAKL [RSB1 C-terminal 12 aa]	0.822 ± 0.061
ANRQCYVNGTKT [YDR250C C-terminal 12 aa]	0.69065 ± 0.00059
APAEQTQGEPTK [BMH2 C-terminal 12 aa]	0.677 ± 0.012

Sequence	protein stability index
APDNGPTVEEVD [SSA4 C-terminal 12 aa]	0.662 ± 0.023
APEEEAYKPNQN [KRR1 C-terminal 12 aa]	0.671 ± 0.012
APRLRLEDIFQQ [RET1 C-terminal 12 aa]	0.7 ± 0.052
AQGKLIMNVEKF [AST1 C-terminal 12 aa]	0.689 ± 0.019
AQQNYRLWLSSF [ICY1 C-terminal 12 aa]	0.6246 ± 0.0033
ARGYVNVMDNIQ [SEC16 C-terminal 12 aa]	0.678 ± 0.042
ARIWKYKKIAPN [TUP1 C-terminal 12 aa]	0.706 ± 0.0071
ARMLARECRRHM [CDC23 C-terminal 12 aa]	0.698 ± 0.054
ASRFAQFLKQDA [MET16 C-terminal 12 aa]	0.764 ± 0.15
ATALSGHKANCN [MTQ1 C-terminal 12 aa]	0.6424 ± 0.0012
ATFFRYLSNIFT [AGP3 C-terminal 12 aa]	0.698 ± 0.0078
ATLINILLELFS [ECM27 C-terminal 12 aa]	0.63 ± 0.018
ATSTAAAADKKT [HAP2 C-terminal 12 aa]	0.724 ± 0.04
AVHLQAIDLLNC [PIR1 C-terminal 12 aa]	0.672 ± 0.01
AVIVHSYTVQHM [TRM3 C-terminal 12 aa]	0.632 ± 0.046
AVKINRNGKPRI [TAO3 C-terminal 12 aa]	0.6846 ± 0.0048
AVVLQSIQFTSE [IML3 C-terminal 12 aa]	0.608 ± 0.024
AWDKFKLQNDIN [SWA2 C-terminal 12 aa]	0.698 ± 0.03
AYFIDVVGCSGL [LIH1 C-terminal 12 aa]	0.705 ± 0.025
AYLLFYTIRQVN [UBP8 C-terminal 12 aa]	0.14 ± 0.011
AYQIRQEVLQSL [SGA1 C-terminal 12 aa]	0.672 ± 0.012
AYVLFYHRVYGV [DOA4 C-terminal 12 aa]	0.648 ± 0.026
CDIQEEQVDITA [PUP1 C-terminal 12 aa]	0.682 ± 0.015
CEYGTNAIDALI [YER091C-A C-terminal 12 aa]	0.6917 ± 0.0036
